Test results as given in paper PMC3947336.

What was measured:
[1] = molecular target: Bxz2 MBP-Int fusion protein (mycobacteriophage Bxz2); test: native gel or EMSA
[2] = molecular target: Bxz2 Int (mycobacteriophage Bxz2 serine-integrase, gene 34) (mycobacteriophage Bxz2); test: native gel or EMSA

Substance | stoichiometry N [1] | stoichiometry N [2]
Bxz2 MBP-Int fusion protein (enzyme) | 2 | –
Bxz2 Int (mycobacteriophage Bxz2 serine-integrase, gene 34) (enzyme) | – | 2
